The source of these data is US20150037339A1 (Regeneron, published 2015).

For experiment [1], the target named is T1, Activin A (homodimer of two inhibin βA subunits; R&D Systems, #338-AC) (human, UniProt P08476 311-426).
T1 construct: Bought protein; also called inhibin-βA dimer
T1 sequence: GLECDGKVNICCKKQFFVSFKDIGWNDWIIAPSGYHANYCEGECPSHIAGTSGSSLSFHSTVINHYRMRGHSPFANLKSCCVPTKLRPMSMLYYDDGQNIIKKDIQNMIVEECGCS
As to the kind of experiment: SPR blocking: 5 nM Activin A + 3.75 nM binder over hActRIIA-hFc surface. As to the method: (§1) The binding signal (RU) was measured at 150 seconds after the start of the injection, and this signal was subtracted by the measured RU value for a negative control reference surface to determine the specific binding signal.

In experiment [2] the target is T1, Activin A (homodimer of two inhibin βA …). The experiment is described as follows: SPR blocking: 5 nM Activin A + 0.00 nM binder over hActRIIB-hFc (Control 4) surface. As to the method:
as §1

For experiment [3] the target is unchanged. As to the kind of experiment: SPR blocking: 5 nM Activin A + 30 nM binder over hActRIIA-hFc surface. On the procedure:
as §1

Experiment [4] shares this target. The experiment is described as follows: SPR blocking: 5 nM Activin A + 0.94 nM binder over hActRIIA-hFc surface. On the procedure: as §1
Experiment [5] has the same target. As to the kind of experiment: SPR blocking: 5 nM Activin A + 15 nM binder over hActRIIA-hFc surface. On the procedure:
as §1

The target is the same in experiment [6]. The experiment is described as follows: SPR blocking: 5 nM Activin A + 1.88 nM binder over hActRIIA-hFc surface. On the procedure: as §1
The target is the same in experiment [7]. As to the kind of experiment: SPR blocking: 5 nM Activin A + 0.94 nM binder over hActRIIB-hFc (Control 4) surface.
Experiment [8] shares this target. The experiment is described as follows: SPR blocking: 5 nM Activin A + 3.75 nM binder over Follistatin-288 surface. On the procedure:
as §1

Experiment [9] shares this target. As to the kind of experiment: SPR blocking: 5 nM Activin A + 0.00 nM binder over hActRIIA-hFc surface. As to the method: as §1
For experiment [10] the target is unchanged. The experiment is described as follows: SPR blocking: 5 nM Activin A + 7.5 nM binder over Follistatin-288 surface. On the procedure: as §1
The target is the same in experiment [11]. The experiment is described as follows: SPR blocking: 5 nM Activin A + 0 nM binder over Follistatin-288 surface. As to the method:
as §1

Experiment [12] shares this target. The experiment is described as follows: SPR blocking: 5 nM Activin A + 30 nM binder over hActRIIB-hFc (Control 4) surface. As to the method: as §1
For experiment [13] the target is unchanged. The experiment is described as follows: SPR blocking: 5 nM Activin A + 60 nM binder over hActRIIA-hFc surface. As to the method: as §1
The target is the same in experiment [14]. The experiment is described as follows: SPR blocking: 5 nM Activin A + 7.50 nM binder over hActRIIB-hFc (Control 4) surface.
The target is the same in experiment [15]. As to the kind of experiment: SPR blocking: 5 nM Activin A + 0.94 nM binder over Follistatin-288 surface. As to the method: as §1
For experiment [16] the target is unchanged. As to the kind of experiment: SPR blocking: 5 nM Activin A + 15 nM binder over hActRIIB-hFc (Control 4) surface.
Experiment [17] shares this target. The experiment is described as follows: SPR blocking: 5 nM Activin A + 60 nM binder over hActRIIB-hFc (Control 4) surface. As to the method: as §1
For experiment [18] the target is unchanged. As to the kind of experiment: SPR blocking: 5 nM Activin A + 3.75 nM binder over hActRIIB-hFc (Control 4) surface. As to the method: as §1
For experiment [19] the target is unchanged. As to the kind of experiment: SPR blocking: 5 nM Activin A + 1.88 nM binder over hActRIIB-hFc (Control 4) surface. On the procedure: as §1
Experiment [20] has the same target. The experiment is described as follows: SPR blocking: 5 nM Activin A + 7.50 nM binder over hActRIIA-hFc surface. As to the method:
as §1

Experiment [21] has the same target. The experiment is described as follows: SPR blocking: 5 nM Activin A + 1.88 nM binder over Follistatin-288 surface. As to the method:
as §1

The target is the same in experiment [22]. As to the kind of experiment: SPR blocking: 5 nM Activin A + 60 nM binder over Follistatin-288 surface. As to the method:
as §1

Experiment [23] has the same target. The experiment is described as follows: SPR blocking: 5 nM Activin A + 15 nM binder over Follistatin-288 surface. As to the method: as §1
Experiment [24] shares this target. As to the kind of experiment: SPR blocking: 5 nM Activin A + 30 nM binder over Follistatin-288 surface. As to the method:
as §1

B1: H4H10430P (antibody, human IgG4, V domains shown)
VH: EVQLVESGGGLVQPGRSLRLSCKASGFAFDDFAMHWVRQAPGKGLEWVSGIVWNSGDIGYADSVKGRFTISRDNAKNSLYLQLNSLRTEDTALYFCVKDMVRGLMGFNYYGMDVWGQGTTVTVSS
VL: EIVLTQSPATLSLSPGERATLSCRASQTISTYLVWYRQRPGQAPSLLIYDASNRATDIPARFSGSGSGTDFTLTISSLEPEDFAVYYCQQRSNWPITFGQGTRLEIK
notes: H4H prefix means human IgG4 Fc
On to B1, for which the “% bound RU w/no inhibitor” value in experiment [1] is 19%; in experiment [2], 100%; in experiment [3], 2%; in experiment [4], 81%; in experiment [5] it was 2%; in experiment [6] it was 62%. Besides, the “% bound RU w/no inhibitor” value in [7] was 80%; in [8], 15%; in experiment [9], 100%; in experiment [10], 1%; in [11], 100%; in experiment [12] it was 3%. For the same molecule, the “% bound RU w/no inhibitor” value amounted to 2% in experiment [13]; 4% in [14]; 79% in experiment [15]; 3% in experiment [16]; 3% in experiment [17]; 20% in [18]. The “% bound RU w/no inhibitor” value in [19] was determined as 62%; in [20], 3%; in [21], 59%; in experiment [22], 1%; in experiment [23], 1%; in experiment [24] it was 1%.

B2: H4H10442P2 (antibody, human IgG4, V domains shown)
VH: QVQLQESGPGLVKPSETLSITCTVSGGSFSSHFWTWIRQPPGKGLEWIGYLHYSGGTSYNPSLKSRVIISVDTSKNQFSLKLNSVTAADTAVYYCARARSGITFGGLIVPGSFDIWGQGTMVTVSS
VL: not shown
notes: as for B1
Consider B2, for which the “% bound RU w/no inhibitor” value amounted to 95% in [1]; 100% in experiment [2]; 117% in experiment [3]; 114% in experiment [4]; 113% in experiment [5]; 114% in [6]. Also, the “% bound RU w/no inhibitor” value was 110% in experiment [7]; 6% in experiment [8]; 100% in [9]; 3% in [10]; 100% in [11]; 122% in experiment [12]. Further, the “% bound RU w/no inhibitor” value in experiment [13] was found to be 118%; in experiment [14], 103%; in experiment [15] it was 73%; in [16], 115%; in experiment [17] it was 124%; in experiment [18] it was 88%. For the same molecule, the “% bound RU w/no inhibitor” value was 106% in [19]; 105% in experiment [20]; 46% in experiment [21]; 3% in experiment [22]; 3% in experiment [23]; 3% in experiment [24].

B3: H4H10446P2 (antibody, human IgG4, V domains shown)
VH: QVQLQESGPGLVKPSETLSLTCTVSGGSFSSHFWSWIRQPPGKGLEWIGYILYTGGTSFNPSLKSRVSMSVGTSKNQFSLKLSSVTAADTAVYYCARARSGITFTGIIVPGSFDIWGQGTMVTVSS
VL: not shown
notes: as for B1
For B3, the “% bound RU w/no inhibitor” value in experiment [1] was 85%; in [2], 100%; in experiment [3] it was 98%; in experiment [4] it was 111%; in experiment [5], 108%; in experiment [6], 115%. In addition, the “% bound RU w/no inhibitor” value came to 107% in [7]; 7% in [8]; 100% in [9]; 3% in experiment [10]; 100% in [11]; 89% in [12]. Also, the “% bound RU w/no inhibitor” value in [13] is 118%; in [14], 95%; in experiment [15], 77%; in experiment [16] it was 115%; in experiment [17], 129%; in [18], 76%. Besides, the “% bound RU w/no inhibitor” value in [19] came to 105%; in experiment [20], 94%; in [21], 54%; in experiment [22] it was 3%; in [23] it was 3%; in [24] it was 3%.
